According to PMC4132694 (Cellular signalling, 2013):

B1: GST-JNK1 (human JNK1α1) (enzyme, UniProt P45983-2 1-384, looked up)
chain: MSRSKRDNNFYSVEIGDSTFTVLKRYQNLKPIGSGAQGIVCAAYDAILERNVAIKKLSRPFQNQTHAKRAYRELVLMKCVNHKNIIGLLNVFTPQKSLEEFQDVYIVMELMDANLCQVIQMELDHERMSYLLYQMLCGIKHLHSAGIIHRDLKPSNIVVKSDCTLKILDFGLARTAGTSFMMTPYVVTRYYRAPEVILGMGYKENVDLWSVGCIMGEMVCHKILFPGRDYIDQWNKVIEQLGTPCPEFMKKLQPTVRTYVENRPKYAGYSFEKLFPDVLFPADSEHNKLKASQARDLLSKMLVIDASKRISVDEALQHPYINVWYDPSEAEAPPPKIPDKQLDEREHTIEEWKELIYKEVMDLEERTKNGVIRGQPSPLAQVQQ
B2: GST-JNK3 (human JNK3α1) (enzyme, UniProt P53779-2 1-422, looked up)
chain: MSLHFLYYCSEPTLDVKIAFCQGFDKQVDVSYIAKHYNMSKSKVDNQFYSVEVGDSTFTVLKRYQNLKPIGSGAQGIVCAAYDAVLDRNVAIKKLSRPFQNQTHAKRAYRELVLMKCVNHKNIISLLNVFTPQKTLEEFQDVYLVMELMDANLCQVIQMELDHERMSYLLYQMLCGIKHLHSAGIIHRDLKPSNIVVKSDCTLKILDFGLARTAGTSFMMTPYVVTRYYRAPEVILGMGYKENVDIWSVGCIMGEMVRHKILFPGRDYIDQWNKVIEQLGTPCPEFMKKLQPTVRNYVENRPKYAGLTFPKLFPDSLFPADSEHNKLKASQARDLLSKMLVIDPAKRISVDDALQHPYINVWYDPAEVEAPPPQIYDKQLDEREHTIEEWKELIYKEVMNSEEKTKNGVVKGQPSPSAQVQQ
B3: full-length wild-type (WT) SMTNL2 (Smoothelin-like 2), [35S]-labeled (natural protein, human, UniProt Q2TAL5-1 1-461, looked up)
chain: MEPAPDAQEARTVREALGRYEAALEGAVRALHEDMRGLQRGVERRVAEAMRLAGPLARTVADLQRDNQRLQAQLERLTRQVEALGLASGMSPVPGTPGTPSPPPAPGVPDRAPRLGSARFASHATFSLSGRGQSLDHDEASESEMRKTSNSCIMENGHQPGAGPGDGPPEIAQNFSAPDPPRPRPVSLSLRLPHQPVTAITRVSDRFSGETSAAALSPMSAATLGGLNPSPSEVITPWTPSPSEKNSSFTWSVPSSGYGAVTASKHSNSPPLVTPPQSPVSPQPPAITQVHRQGERRRELVRSQTLPRTSEAQARKALFEKWEQETAAGKGKGEARARLKRSQSFGVASASSIKQILLEWCRSKTLGYQHVDLQNFSSSWSDGMAFCALVHSFFPDAFDYNSLSPTQRQKNFELAFTMAENLANCERLIEVEDMMVMGRKPDPMCVFTYVQSLYNHLRRFE
modifications: [35S]-methionine label

Tests used:
Assay in all cases: pull-down
[1] = molecular target: B3
GST-JNK1 (human JNK1α1) = molecular target: B1
GST-JNK2 (human JNK2α2) = GST-JNK2 (human JNK2α2) (human, UniProt P45984-1 1-424)
GST-JNK3 (human JNK3α1) = molecular target: B2

Row | Binder | Kd [1] | percent of input bound (GST-JNK1 (human JNK1α1)) | percent of input bound (GST-JNK2 (human JNK2α2)) | percent of input bound (GST-JNK3 (human JNK3α1))
1 | B1 | ~50 µM | – | – | –
2 | B2 | ~4 µM | – | – | –
3 | B3 | – | 8 % of input | 65 % of input | 50 % of input
